Experimental data as given in patent US20100105612A1.

Biological target: mouse RANK (RANKL receptor on RAW264 cells) (mouse) (UniProt O35305)
Assay: cell-based or functional assay

Chain of UniProt O35305 (O35305 31-625): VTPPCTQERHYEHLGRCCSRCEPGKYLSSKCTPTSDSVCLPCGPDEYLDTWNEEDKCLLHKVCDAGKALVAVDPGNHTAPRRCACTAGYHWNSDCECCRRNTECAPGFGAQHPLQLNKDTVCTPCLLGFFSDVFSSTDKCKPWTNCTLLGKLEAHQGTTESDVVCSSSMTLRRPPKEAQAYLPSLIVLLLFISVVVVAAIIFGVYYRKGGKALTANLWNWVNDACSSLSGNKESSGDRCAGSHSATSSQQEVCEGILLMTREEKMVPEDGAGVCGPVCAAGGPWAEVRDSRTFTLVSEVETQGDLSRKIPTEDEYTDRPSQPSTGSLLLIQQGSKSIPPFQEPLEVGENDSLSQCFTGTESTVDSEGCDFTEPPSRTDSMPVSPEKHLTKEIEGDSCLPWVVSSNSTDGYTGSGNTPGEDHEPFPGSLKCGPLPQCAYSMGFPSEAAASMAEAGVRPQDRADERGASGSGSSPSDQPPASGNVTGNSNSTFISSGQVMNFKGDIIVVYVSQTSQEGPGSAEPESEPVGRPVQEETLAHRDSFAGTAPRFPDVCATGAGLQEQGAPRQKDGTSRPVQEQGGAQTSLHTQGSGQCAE

osteoclast induction activity in RAW264 cells (at concentrations of 10 nM and 5 nM) (fold over mouse soluble RANKL): > 2
Substance: GST-RANKL (fused protein of glutathione-S-transferase with human soluble RANKL residues 140-317) (ligand)
